Data reported in patent publication US20220073599A1 (Hoffmann-La Roche, published 2022).

Experiments:
ANG2 = molecular target: T1, ANG2 (human, UniProt O15123 19-496, limits assumed); test: cell-based or functional assay
T1 sequence: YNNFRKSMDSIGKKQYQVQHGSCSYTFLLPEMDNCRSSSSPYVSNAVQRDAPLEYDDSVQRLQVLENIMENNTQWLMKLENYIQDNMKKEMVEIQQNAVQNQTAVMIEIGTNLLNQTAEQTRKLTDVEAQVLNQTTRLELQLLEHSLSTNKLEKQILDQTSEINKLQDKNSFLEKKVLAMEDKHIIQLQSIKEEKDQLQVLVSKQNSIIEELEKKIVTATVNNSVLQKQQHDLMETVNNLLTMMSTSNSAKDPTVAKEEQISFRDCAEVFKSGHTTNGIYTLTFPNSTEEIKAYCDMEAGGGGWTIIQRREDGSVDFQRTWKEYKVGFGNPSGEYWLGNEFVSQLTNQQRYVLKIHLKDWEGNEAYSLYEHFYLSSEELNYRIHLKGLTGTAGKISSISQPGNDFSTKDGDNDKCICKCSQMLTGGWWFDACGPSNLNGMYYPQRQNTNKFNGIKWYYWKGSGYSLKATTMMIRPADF

human Ang2-RBD-muFc = molecular target: T2, human Ang2-RBD-muFc (human, UniProt O15123 275-496, limits assumed); test: KinExA, human ANG2 (Ang2-RBD-muFc) by the table's title; the column's head prints VEGFA-121
T2 construct: also called Human ANG2 (KinExA); not shown: murine Fc (muFc)
T2 sequence: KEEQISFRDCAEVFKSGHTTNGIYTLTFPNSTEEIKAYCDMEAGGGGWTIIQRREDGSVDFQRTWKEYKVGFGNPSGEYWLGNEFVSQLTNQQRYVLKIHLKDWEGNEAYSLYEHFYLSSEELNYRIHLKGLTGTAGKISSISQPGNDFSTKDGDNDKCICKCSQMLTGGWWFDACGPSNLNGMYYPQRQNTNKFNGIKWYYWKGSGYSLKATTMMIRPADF
Method: All KinExA® experiments were performed at room temperature (RT) using PBS pH 7.4 with 0.01% BSA and 0.01% Tween® 20 (BioRad, #161-0781) as running buffer. […] A flow rate of 0.25 ml/min was used. A constant amount of Ang2-RBD-muFc (50 pM and in a second experiment 500 pM) was titrated with tested antibody by twofold serial dilution starting at 4 nM (concentration range 1.95 pM-4000 pM). Antigen-antibody complexes were incubated at RT for at least 8 h to allow equilibrium to be reached. Equilibrated mixtures were then drawn through a column of Anti-Ang2 antibody (MAB098) coupled beads in the KinExA® system at a volume of 750 μl for 50 pM constant Ang2 and at a volume of 188 μl for 500 pM constant Ang2 permitting unbound Ang2 to be captured by the beads without perturbing the equilibrium state of the solution. Bound Ang2 was detected using a second biotinylated anti-Ang2 antibody (BAM0981) with a concentration of 250 ng/ml and following by an injection of 250 ng/ml Streptavidin Alexa Fluor™ 647 conjugate in sample buffer. Each sample was measured in duplicates for all equilibrium experiments. The KD was obtained from non-linear regression analysis of the data using a one-site homogeneous binding model contained within the KinExA® software (Version 4.0.11) using the “standard analysis” method. […]

B1: Nesvacumab-analogue (antibody, human IgG1, kappa, L234A L235A, V domains shown)
VH: AVQLVASGGGLVQPGGSLRLSCAASGFTFSSYDIHWVRQATGKGLEWVSAIGPAGDTYYPGSVKGRFTISRENAKNSLYLQMNSLRAGDTAVYYCARGLITFGGLIAPFDYWGQGTLVTVSS
VL: IVLTQSPGTLSLSPGERATLSCRASQSVSSTYLAWYQQKPGQAPRLLIYGASSRATGIPDRFSGSGSGTDFTLTISRLEPEDFAVYYCQHYDNSQTFGQGTKVEIKR
notes: also called Nesvacumab (INN); Nesvacumab Mab
B1 was tested, and the “IC50, pTie2-Assay (Tie2 phosphorylation in Hek293 cells expressing Tie2, stimulated with Ang-2)” value (ANG2) was 6 nM and the Kd (human Ang2-RBD-muFc) was 0.01 nM.
